Target: rapsyn, endogenous in C2C12 myotubes (mouse (endogenous in C2C12)) (UniProt P12672)
Experiment: co-IP; C2C12 myotube lysates, anti-rapsyn antibody and protein A agarose beads, blot for α-actinin; myotubes untreated, with agrin 10 ng/ml 18 hr, with agrin and STI-571, or with agrin and then 10 μM carbachol for 4 hr

UniProt P12672, sequence (P12672 whole entry): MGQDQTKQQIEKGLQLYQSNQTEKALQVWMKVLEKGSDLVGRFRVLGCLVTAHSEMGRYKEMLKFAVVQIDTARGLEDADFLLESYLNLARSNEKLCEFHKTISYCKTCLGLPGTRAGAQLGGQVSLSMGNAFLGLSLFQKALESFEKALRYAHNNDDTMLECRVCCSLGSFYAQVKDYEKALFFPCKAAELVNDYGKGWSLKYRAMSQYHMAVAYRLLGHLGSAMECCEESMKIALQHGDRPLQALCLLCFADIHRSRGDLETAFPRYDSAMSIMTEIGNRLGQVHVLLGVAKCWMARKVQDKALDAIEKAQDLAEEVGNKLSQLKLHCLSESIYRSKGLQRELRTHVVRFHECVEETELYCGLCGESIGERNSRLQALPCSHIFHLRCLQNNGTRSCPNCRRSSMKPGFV

- fold increase of the co-precipitation in agrin-treated against untreated myotubes: 6 to 10 fold
Substance: α-actinin, endogenous in myotubes (from UniProt Q9JI91 1-894) (natural protein)

— publication PMC2621155
